Test in all cases: FRET or BRET
A general note: Bioluminescence resonance energy transfer reports proximity on the nanometre scale.

For experiment [1], the target named is OT-I TCR vβ5 chain.
Experiment [2] addresses P14 TCR vβ8 chain.
Experiment [3] deals with P14 TCR vβ8 chain. The source holds these as a separate data set.
Experiment [4] concerns the target OT-I TCR vβ5 chain. This is another data set of the same source.
In experiment [5] the target is OT-I TCR vβ5 chain. The source holds these as a separate data set.
The target in experiment [6] is P14 TCR vβ8 chain. The source holds these as a separate data set.
In experiment [7] the target is P14 TCR vβ8 chain. This is another data set of the same source.
Experiment [8] addresses P14 TCR vβ8 chain. This is another data set of the same source.
For experiment [9], the target named is OT-I TCR vβ5 chain. This is another data set of the same source.
Experiment [10] deals with P14 TCR vβ8 chain. The source holds these as a separate data set.
The target of experiment [11] is P14 TCR vβ8 chain. The source holds these as a separate data set.

Where two headings read alike, the source gives them in different places.

As for “OT-I TCR vα2 chain with N-terminal HA tag”, the FRET efficiency in [1] stood at 25%; in experiment [2], 21%; in experiment [3], 16%; in experiment [4] it was 33.7%; in experiment [5] it was 32.5%; in experiment [6], 22.6%.
Regarding “P14 TCR vα2 chain with two N-terminal myc tags”, the FRET efficiency in experiment [7] was determined as 35%; in experiment [1], 12%; in experiment [2], 19%; in [8], 27%; in [3] it was 10%; in experiment [9], 28%. Also, the FRET efficiency amounted to 26% in [10], 27% in [11], 12% in experiment [5] and 23.3% in [6].

These data come from article PMC4209802.
